In patent US6555347 (University of California, dated 2003):

Target: T1, lexA-bicoid (UniProt P09081 2-160)
T1 construct: also called nonspecific bait; not shown: LexA part of the two-hybrid bait
T1 sequence (looked up): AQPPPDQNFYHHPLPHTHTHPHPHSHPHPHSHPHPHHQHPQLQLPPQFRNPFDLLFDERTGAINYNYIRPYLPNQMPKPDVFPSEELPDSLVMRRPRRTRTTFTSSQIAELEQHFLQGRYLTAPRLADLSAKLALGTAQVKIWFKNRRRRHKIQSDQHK
Test: yeast two-hybrid (interaction trap), retransformation with control bait
Description: The human minor vault protein p193 amino acid sequence and the nucleotide sequence encoding human minor vault protein p193 were elucidated as follows. First, human vault protein p193 was cloned using an interaction trap, two-hybrid system according to techniques known to those with skill in the art. See, for example, Golemis, et al., *Current Protocols in Mol. Biol.* 20.1.1–20.35 John Willey & Sons, 1997, incorporated by reference in its entirety. In summary, rat major vault protein, GenBank accession number U09870, having the 67 amino acids at the amino-terminal truncated was used as bait against a HeLa acid fusion cDNA library obtained from Roger Brent, Boston, Mass., USA to search for proteins that interacted with rat major vault protein. The interacting proteins were identified by their ability to give rise to blue colonies on media containing galactose and X-gal, a color indicator substrate. The specificity of the interaction between the identified proteins and the rat major vault protein was verified by retransformation of the identified proteins with specific, rat major vault protein and nonspecific (lexA-bicoid) bait cDNAs. This technique identified the cDNA encoding the 193 kDa minor vault protein, SEQ ID NO: 1, by its interaction with the rat major vault protein.

B1: human minor vault protein p193 (other)
chain: VCTQHWQDAVPWTELLSLQTEDGFWKLTPELGLILNLNTNGLHSFLKQKGIQSLGVKGRECLLDLIATMLVLQFIRTRLEKEGIVFKSLMKMDDPSISRNIPWAFEAIKQASEWVRRTEGQYPSICPRLELGNDWDSATKQLLGLQPISTVSPLHRVLHYSQG
notes: In the two-hybrid screen, p193 was a clone from a HeLa acid fusion cDNA library; In the western blots, immunofluorescence and immunoprecipitation, the form of p193 is not described; also called 193 kDa minor vault protein; human vault protein p193
  binding result: no binding
